17 sequences from US20030119023 can be followed below.

Common to all, as to test: EMSA
(In general: A gel shift assay detects complexes by their altered migration in electrophoresis.)

In data set [1] the target is ZIF-F4-GAC (TFIIIA finger 4 linker) (artificial) (UniProt P08046). The conditions noted are these: apparent Kd.
In data set [2] the target is ZIF-flex-GAC (linker TG(GSG)5ERP) (artificial) (UniProt P08046). The conditions noted are these: all sites approximately 50 pM.
Data set [3] has as its system ZIF-ZnF-GAC (serine-finger linker) (artificial). The conditions noted are these: apparent Kd.
Data set [4] has as its target ZIF-F4mut-GAC (ZIF-mutF4-GAC; TFIIIA finger 4 flanked by GERP linkers) (artificial) (UniProt P08046). As to conditions: apparent Kd.
Data set [5] deals with ZIF-mutZnF-GAC (serine finger flanked by NIKICV and TQQLP) (artificial) (UniProt P08046).
The target of data set [6] is TF(1-3)-flex-ZIF (linker TG(GSG)5ERP) (artificial) (UniProt P03001+P08046). As to conditions: apparent Kd.
Data set [7] has as its system 3x2F ZGS (artificial). As to conditions: apparent Kd; half-site; hard to quantify.
Data set [8] has as its system TF(1-4)-ZIF (TFIIIA F1-4 fused to Zif268) (artificial). The conditions noted are these: apparent Kd; half-site.
The subject of data set [9] is 2x3F ZIF-GAC (artificial). As to conditions: apparent Kd; half-site.

Sequence of 3x2F ZGS (artificial) (chain, as listed by the source): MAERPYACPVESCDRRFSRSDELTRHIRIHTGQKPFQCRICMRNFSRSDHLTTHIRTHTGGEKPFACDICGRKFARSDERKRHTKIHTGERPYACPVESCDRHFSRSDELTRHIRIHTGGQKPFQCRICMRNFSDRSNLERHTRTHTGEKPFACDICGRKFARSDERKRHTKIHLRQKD

With “GCGGACGCGGCGTGGGCG (double strand) [bsC (123456, ZM)]”, the values for the Kd in data set [1] and in data set [2] were 0.011 nM and 0.05 nM, respectively.
Take “GCGGACGCGNGCGTGGGCG (double strand) [Z1M]”: the Kd in [1] turned out to be 0.006 nM; in data set [2], 0.05 nM; in data set [3], 0.004 nM.
Taken in the same sequence, the figures for “GCGGACGCGNNGCGTGGGCG (double strand) [Z2M]” were 0.007 nM, 0.05 nM and 0.006 nM.
The matching figures for “GCGGACGCGNNNGCGTGGGCG (double strand) [Z3M]”: 0.005 nM, 0.05 nM and 0.004 nM.
Taken in the same sequence, the figures for “GCGGACGCGNNNNGCGTGGGCG (double strand) [Z4M]” were 0.013 nM, 0.05 nM and 0.003 nM.
Regarding “GCGGACGCGNNNNNGCGTGGGCG (double strand) [Z5M]”, the Kd is 0.013 nM in data set [4]; 0.018 nM in [5]; 0.016 nM in data set [1]; 0.05 nM in data set [2]; 0.008 nM in [3].
The matching figures for “GCGGACGCGNNNNNNGCGTGGGCG (double strand) [Z6M]”: 0.013 nM, 0.011 nM, 0.017 nM, 0.05 nM and 0.007 nM.
As to “GCGGACGCGNNNNNNNGCGTGGGCG (double strand) [Z7M]”, the Kd in [1] was determined as 0.005 nM; in data set [2], 0.05 nM; in data set [3], 0.003 nM.
Taken in the same sequence, the figures for “GCGGACGCGNNNNNNNNGCGTGGGCG (double strand) [Z8M]” were 0.005 nM, 0.05 nM and 0.006 nM.
The matching figures for “GCGGACGCGNNNNNNNNNGCGTGGGCG (double strand) [Z9M]”: 0.005 nM, 0.05 nM and 0.004 nM.
The matching figures for “GCGGACGCGNNNNNNNNNNGCGTGGGCG (double strand) [Z10M]”: 0.004 nM, 0.05 nM and 0.003 nM.
“GCGTGGGCG (double strand) [bsA (ZIF site)]”: the Kd in data set [6] (half-site) came out at 1.8 nM; in data set [7] it was 110 nM; in data set [1] (half-site), 2.2 nM; in [8], 2 nM; in data set [3] (half-site), 2 nM; in [9], 2.2 nM.
“GCGTGGGCGAGTACCTGGATGGGAGAC (double strand) [TF7Z (bsC1)]”: in data set [6], the Kd was 0.057 nM.
Consider “GCGTGGGCGGTACCTGGATGGGAGAC (double strand) [TF6Z (bsB1)]”, for which the Kd in [6] amounted to 0.068 nM.
Same read-out and setting: under “GCGTGGGCGTACCTGGATGGGAGAC (double strand) [TF5Z (bsA1)]” stands 0.063 nM.
Still for that read-out and setting: the value for “GCGTGGGCGTAGTACCTGGATGGGAGAC (double strand) [TF8Z (bsD1)]” was 0.061 nM.
For “GCGTGGGCGTTAGTACCTGGATGGGAGAC (double strand) [TF9Z (bsE1)]”, in data set [6], the Kd came out at 0.058 nM.
